From IntAct's records for PubMed 16513117

B1: Protein phosphatase Slingshot homolog 1 (Homo sapiens), Q8WYL5 (parent)
chain: MALVTLQRSPTPSAASSSASNSELEAGSEEDRKLNLSLSESFFMVKGAALFLQQGSSPQGQRSLQHPHKHAGDLPQHLQVMINLLRCEDRIKLAVRLESAWADRVRYMVVVYSSGRQDTEENILLGVDFSSKESKSCTIGMVLRLWSDTKIHLDGDGGFSVSTAGRMHIFKPVSVQAMWSALQVLHKACEVARRHNYFPGGVALIWATYYESCISSEQSCINEWNAMQDLESTRPDSPALFVDKPTEGERTERLIKAKLRSIMMSQDLENVTSKEIRNELEKQMNCNLKELKEFIDNEMLLILGQMDKPSLIFDHLYLGSEWNASNLEELQGSGVDYILNVTREIDNFFPGLFAYHNIRVYDEETTDLLAHWNEAYHFINKAKRNHSKCLVHCKMGVSRSASTVIAYAMKEFGWPLEKAYNYVKQKRSITRPNAGFMRQLSEYEGILDASKQRHNKLWRQQTDSSLQQPVDDPAGPGDFLPETPDGTPESQLPFLDDAAQPGLGPPLPCCFRRLSDPLLPSPEDETGSLVHLEDPEREALLEEAAPPAEVHRPARQPQQGSGLCEKDVKKKLEFGSPKGRSGSLLQVEETEREEGLGAGRWGQLPTQLDQNLLNSENLNNNSKRSCPNGMEDDAIFGILNKVKPSYKSCADCMYPTASGAPEASRERCEDPNAPAICTQPAFLPHITSSPVAHLASRSRVPEKPASGPTEPPPFLPPAGSRRADTSGPGAGAALEPPASLLEPSRETPKVLPKSLLLKNSHCDKNPPSTEVVIKEESSPKKDMKPAKDLRLLFSNESEKPTTNSYLMQHQESIIQLQKAGLVRKHTKELERLKSVPADPAPPSRDGPASRLEASIPEESQDPAALHELGPLVMPSQAGSDEKSEAAPASLEGGSLKSPPPFFYRLDHTSSFSKDFLKTICYTPTSSSMSSNLTRSSSSDSIHSVRGKPGLVKQRTQEIETRLRLAGLTVSSPLKRSHSLAKLGSLTFSTEDLSSEADPSTVADSQDTTLSESSFLHEPQGTPRDPAATSKPSGKPAPENLKSPSWMSKS

Variants of: B1
Conditions: with actb_rabit ACTB

Variant	effect of a mutation on the interaction
W458A	disrupting interaction
